{"source": "paper PMC12175908", "biological_target": "Paxillin N-domain (residues 1 to 311) (human) (UniProt P49023)", "sequence (P49023 other isoform, or with tags, fused parts or gaps)": "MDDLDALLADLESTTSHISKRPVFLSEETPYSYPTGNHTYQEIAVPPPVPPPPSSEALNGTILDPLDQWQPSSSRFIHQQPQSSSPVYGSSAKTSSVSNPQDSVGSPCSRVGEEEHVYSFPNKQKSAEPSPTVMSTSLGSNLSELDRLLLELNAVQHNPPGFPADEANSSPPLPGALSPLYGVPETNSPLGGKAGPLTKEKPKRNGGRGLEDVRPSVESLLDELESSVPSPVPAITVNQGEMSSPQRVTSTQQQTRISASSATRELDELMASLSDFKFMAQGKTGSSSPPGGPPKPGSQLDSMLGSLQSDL", "assay": "NMR titration; 100 μM 15N-PXN N-domain, unlabeled FAT added (10 to 300 μM); 2D 1H-15N HSQC, decay of amide peak intensity per LD motif, fraction bound against total FAT; effective (relative) constants for single LD motifs; 100 mM potassium phosphate, 1 mM TCEP, 0.1 mM EDTA, pH 7.0, 10°C"}
{"substance": "focal adhesion targeting (FAT) domain of focal adhesion kinase (domain or fragment)", "values": [{"measurement": "effective Kd of the LD1 motif", "result": 17, "unit": "µM"}, {"measurement": "effective Kd of the LD2 motif", "result": 7000, "unit": "µM"}, {"measurement": "effective Kd of the LD4 motif", "result": 13, "unit": "µM"}]}
